Data as given in paper PMC2176068, “Hepatoma derived growth factor binds DNA through the N-terminal PWWP domain”.

Tests used:
TNT-HDGF (untagged) = TNT-HDGF (untagged) (UniProt P51858 1-240); test: EMSA; 10 mM Tris pH 7.5, 50 mM KCl, 1 mM DTT, 5% glycerol, 0.05% NP-40, 0.1 ug sheared salmon sperm DNA; 1 ug protein, 0.25 pmol probe, 30 min on ice; 5% PAGE in 0.1x TBE; settings: protein: ivt; tags: none; label: 5' biotin (sense strand); blunt
His-HDGF-GFP = His-HDGF-GFP (UniProt P51858 1-240); test: as above; settings: protein: recombinant; tags: His, GFP; label: 5' biotin (sense strand); blunt
GST-HDGF [1] = target: T1, GST-HDGF (Homo sapiens, UniProt P51858 1-240); test: as above; settings: protein: recombinant, tags: N-terminal GST (pGEX-4T2), blunt
GST-HDGF Δ1-146 = GST-HDGF Δ1-146 (Homo sapiens, UniProt P51858 1-146); test: as above; settings: protein: recombinant; tags: N-terminal GST; label: 5' biotin (sense strand); blunt
GST-HDGF Δ1-140 = GST-HDGF Δ1-140 (Homo sapiens, UniProt P51858 1-140); test: as above; settings: protein: recombinant; tags: N-terminal GST; label: 5' biotin (sense strand); blunt
GST-HDGF Δ1-110 = GST-HDGF Δ1-110 (Homo sapiens, UniProt P51858 1-110); test: as above; settings: protein: recombinant; tags: N-terminal GST; label: 5' biotin (sense strand); blunt
GST-HDGF Δ70-237 = GST-HDGF Δ70-237 (Homo sapiens, UniProt P51858 70-237); test: as above; settings: protein: recombinant; tags: N-terminal GST; label: 5' biotin (sense strand); blunt
GST-HDGF [2] = target: T1, GST-HDGF; test: competition; 100x unlabeled, labeled 80 bp probe; 10 mM Tris pH 7.5, 50 mM KCl, 1 mM DTT, 5% glycerol, 0.05% NP-40, 0.1 ug sheared salmon sperm DNA; 1 ug protein, 0.25 pmol probe, 30 min on ice; 5% PAGE in 0.1x TBE; settings: protein: recombinant, tags: N-terminal GST (pGEX-4T2)

T1 sequence (P51858 whole entry): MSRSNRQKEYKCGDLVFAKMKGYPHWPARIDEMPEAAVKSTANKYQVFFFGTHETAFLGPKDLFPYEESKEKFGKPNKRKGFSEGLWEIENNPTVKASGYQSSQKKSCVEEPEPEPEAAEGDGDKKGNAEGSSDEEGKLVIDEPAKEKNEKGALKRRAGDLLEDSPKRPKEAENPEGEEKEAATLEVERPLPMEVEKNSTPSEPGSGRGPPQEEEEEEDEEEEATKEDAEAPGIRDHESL
GST-HDGF Δ1-146, sequence (P51858 1-146, stated change not applied): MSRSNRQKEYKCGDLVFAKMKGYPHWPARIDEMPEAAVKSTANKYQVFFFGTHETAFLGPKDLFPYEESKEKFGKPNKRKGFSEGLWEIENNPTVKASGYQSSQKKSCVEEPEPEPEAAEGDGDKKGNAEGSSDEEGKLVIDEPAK
GST-HDGF Δ1-140, sequence (P51858 1-140, stated change not applied): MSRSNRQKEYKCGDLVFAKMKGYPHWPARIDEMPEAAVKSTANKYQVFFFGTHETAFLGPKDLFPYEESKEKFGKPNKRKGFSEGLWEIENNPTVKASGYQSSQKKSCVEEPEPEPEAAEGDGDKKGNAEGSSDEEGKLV
GST-HDGF Δ70-237, sequence (P51858 70-237, stated change not applied): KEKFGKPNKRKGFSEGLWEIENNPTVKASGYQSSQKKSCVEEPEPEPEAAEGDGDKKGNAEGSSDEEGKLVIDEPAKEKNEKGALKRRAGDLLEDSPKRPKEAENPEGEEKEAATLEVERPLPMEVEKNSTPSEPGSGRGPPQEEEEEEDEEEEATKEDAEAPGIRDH
GST-HDGF Δ1-110, sequence (P51858 1-110, stated change not applied): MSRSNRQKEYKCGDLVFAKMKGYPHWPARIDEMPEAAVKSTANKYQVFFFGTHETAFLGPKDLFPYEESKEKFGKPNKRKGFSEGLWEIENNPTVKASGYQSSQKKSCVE
His-HDGF-GFP, sequence (P51858 whole entry): as the sequence (P51858 whole entry) above
TNT-HDGF (untagged), sequence (P51858 whole entry): as above

B1: SMYD1 promoter 80 bp probe (dsDNA)
DNA 1: CAGGCTGGTCTTGAACTCCTGACCTCAGATGATCCATGTGCCTCGGCCTCCCAAGGTGGGGATTACAGGCGTGAGCCACC
DNA 2: GGTGGCTCACGCCTGTAATCCCCACCTTGGGAGGCCGAGGCACATGGATCATCTGAGGTCAGGAGTTCAAGACCAGCCTG
- binding result (TNT-HDGF (untagged)): binds
- binding result (His-HDGF-GFP): binds
- binding result (GST-HDGF [1]; label: 5' biotin (sense strand)): binds
- binding result (GST-HDGF Δ1-146): binds
- binding result (GST-HDGF Δ1-140): binds
- binding result (GST-HDGF Δ1-110): binds
- binding result (GST-HDGF Δ70-237): no binding

B2: 80 bp specific competitor (unlabeled) (dsDNA)
DNA 1: B1 DNA 1
DNA 2: B1 DNA 2
- binding result (GST-HDGF [2]; blunt): binds

B3: non-specific competitor (dsDNA)
DNA 1: TGCTGTTGACAGTGAGCGCGGCCAGCTTATAGTCATATATTAGTGAAGCCACAGATGTAATATATGACTATAAGCTGGCCTTGCCTACTGCCTCGGA
DNA 2: TCCGAGGCAGTAGGCAAGGCCAGCTTATAGTCATATATTACATCTGTGGCTTCACTAATATATGACTATAAGCTGGCCGCGCTCACTGTCAACAGCA
- binding result (GST-HDGF [2]): no binding

B4: 37 bp minimal probe (dsDNA)
DNA 1: CTTGAACTCCTGACCTCAGATGATCCATGTGCCTCGG
DNA 2: CCGAGGCACATGGATCATCTGAGGTCAGGAGTTCAAG
- binding result (GST-HDGF [1]; label: 5' biotin): binds
